Experimental data reported in the DeepSol protein solubility set.

test: soluble on expression in E. coli; label from the status in PepcDB or PDB records

| Sequence | soluble on expression in E. coli |
| --- | --- |
| MKRIAFVGSVGAGKTTLFNALQGNYTLARKTLAVEFNDKGDIDTPGEYFSHPRWYHALITTLQDVDMLIYVHGANDPESRLPAGLLDIGVSKRQIAVISKTDMPDADVAATRKLLLETGFEEPIFELNSHDPQSVQQLVDYLASLTKQEEAGEKTHHSELEHHHHHH | soluble |
| MGSDKIHHHHHHVVVMSKVLLNIGCADVDKPGYINVDARKTKVTHLVSNAWDLDCFEENSVHEIYSRHMLEHLNPEYAKLALQKWFYILEPEGKLVVIVPDIEFHARQLLGVSRSSFGDQMEHAFAGFWGWREKERGGSDFDAHQWGYTVATLENEIGAVGFERIERVVEGVDSEPWHLQMTARKPMTSLCCPMDFRGPFP | not soluble |
| MIRKATWADAPAIASVHVESWKTTYSGIVPDAYLETLSVGEKQPLWEKVLSQSGHSVFVAEENGRVVGFVSGGPNRAADGPIAKYDGELYAIYLLKEVQGKGLGRQLVQALTRHLAQKGIHSLVVWVLADNPSRGFYERLGGEKVAEERVEIGGKALWEWCYELARRPIDGTVGGLPNRAAA | not soluble |
| MGSDKIHHHHHHMMIKVFPKLRKQIWGSYRLGEMFGSNEKIGEVWLLSGHPLFITEAEGGLDLNEDMEKLIGKKLPRFPLLVKLISAEDWLSVQVHPNDDEAQELENEPWGKTEAWYFVEKGQIAIGEDPEKVKRALEDNSWDEALKKVEIEPGTFVFLPAGTVHALGPGGLLVEVQQASDLTYRVYDWGRGRELHIEKAFKVMKERKVEDLIVENFENFECEYFRIEKLERGKLEGFCAIVILENGVLDNRQVSPFETFIVPKGEKAELRATALVMRIGKFFEQWGDKK | not soluble |
| MSLKVAVIGAGAMGGLYGAYLSRKNDVYMIDINEKVVKSINENGLIIYERENNKKEKFLVSAFTDSSNLGPMDLVIIFVKNLYTTSALKNNLNLFSDSTLVITLQNGAGNDRDLEKFIKKENILIGTTEHSCSILETGEVSHNQEGITNIGMLVYNDNIIKRISDEFKACSLKTEVYQNIQEIIWSKLFINMALNSTTAILNCKVGYLEKSKDASEIVQSILSEAVDVAIADGTFFNKKEVIDKVQKCIREDLPNAITSMNQDVSNKRLTEIDHINGAVANLAKLYKIPTPYNDCIIHIIHALEGLYNEGHHHHHH | soluble |
| MSNKFHCDVCSADCTNRVRVSCAICPEYDLCVPCFSQGSYTGKHRPYHDYRIIETNSYPILCPDWGADEELQLIKGAQTLGLGNWQDIADHIGSRGKEEVKEHYLKYYLESKYYPIPDITQNIHVPQDEFLEQRRHRIESFRERPLEPPRKPMASVPSCHEVQGFMPGRLEFETEFENEAEGPVKDMVFEPDDQPLDIELKFAILDIYNSRLTTRAEKKRLLFENHLMDYRKLQAIDKKRSKEAKELYNRIKPFARVMTAQDFEEFSKDILEELHCRARIQQLQEWRSNGLTTLEAGLKYERDKQARISSFEKFGASTAASLSEGNSRYRSNSAHRSNAEYSQNYSENGGRKKNMTISDIQHAPDYALLSNDEQQLCIQLKILPKPYLVLKEVMFRELLKTGGNLSKSACRELLNIDPIKANRIYDFFQSQNWM | soluble |
| MGSDKIHHHHHHMPQLQTNNTALSTQQSAEMKTTRLLKVLKIMFPRENWTSQKLTSEVNVKGSGVYRFEHGTIAHLGQPGGPRTEHLWEMTVDRVWAKALIEAHNQAQESEALVRTQAEVYPKDWYGLRLRSPAEAAIAEALQTKGVLFFVNTGCRLHNHSKQYETREVDFLVFHQGKVRILEVDGITYHQNPLADYKRDRLFDREGIRTSRFSAQECFENPNGVVEEFLGLFKF | not soluble |
| MYIVIAGGGEMGGELARALEKTHDVVVIDRNPQARERFASLDVKVVVGGATDPDTLREAGVDRADLFVASTDSDEINLLASLLAKGLGAKEAFCFVGKGGYVEVLTDPRTAEILGTRIDRVLWPQRAMAREIVEVILVPWAVDTEVLAGGRLRFVEYRVKEGGEYVHRLLSGEKWPEGVLLAGVVREGTFLSFAHPEFPELILEPGDKLLFVATQKAFSELAAYFTEGPGVRRVMVIGGGNVGFMVAQGLLKRRVEVVIVERNAERCQWLSEELPGALVIQGDGTDIELLEAEGMAEADAVVAVTDHDEKNLLASLLAKQMGVRKVITRVSRSETRRLFEQVGIDLALTPRQAAVREVLDWIGPENVEHIATLDESIEVLEVLVSEGAAPKALRDLVRPDAVPVALERDHRIFLYEEGLGLLPGDRLYLVAAREVADEVLAPFFPE | soluble |
| MRALVVGAGIGGLVAARALRRAGLEVLVLEAHTYPGGLAGTFTHRGYRFDAGATLLSGFAPGGPMALVAEALGVCLPVEPFPEGFPLMEVHLPRGPLLRPVGREAEREAQRDFFGPRVLPFWRWQEERAKALLRLAPRLPWPPEREELLRLLALLPELFPLLPDLFLKAAHRAPQDPHFLRFLDAQLLIASQAEAKRTYALYAALALDLPHMGPALVPGGVGRVAEALAEGLPVRYKARAERLLLGEGRALAVEVAYGGRRRGEREVVEADLFVLDVPLAPLLGLPLKVPEDAWGAFVVHGVLPFRAPPPYFRQNAREKPFAFLSLRPEGEKTAFALSLHTPLALWEGLSPEEYGRLKARWGEMALSLGEALLPGLREAELLLFGTPRTYARFAGRAWVGGFPQTHPFRFPRVRPFPNVFRVGEGVFPGQSVPAAALSGLRAARLALEALGLAGSGGEARPSFPPFPLEHHHHHH | not soluble |
| SNAKSAVTAQSILEKADEIRFPQDSFQVNVAIRTAAPDHAEDLYRYQVLSKGNENSIVMITEPASERGQAILMKGRDLWVFMPSVSQPIRLSLSQRLTGQVANGDIARANFTGDYHPQLLRNESIDDEDYYVLELTGIDRSVTYQKVLLWVNQSNFRPYKAEFYSVSGRLLKTSRYENFDNILGEMRPTRIIMEDALKSGEVSVLDYSDMKLRDLPDKIFTKDYLKRLE | soluble |
| MGSDKIHHHHHHTEDKDWSGGLKNSDLVFQTYLPTEGAKGTELSIRGNNFGEDISQVQVWVNEKEAEVISVTSTRIMARVAEASGSGVVKVRVGEVVYSYPDLFSYGYIRNVYTVAGNGQGTTVDGAYLQASVQWPIVMVYDKWDDAILFLQDEGEHRIRRMKDGKIETLCSTKSLVNNARSICFSLDGDTLFIGNDNANNYVANPVAVGMVTRKGGFKDLKSYIPSEKLAQPHINGIAVNPVDGSLFTYHWGRHVFRYNKATETCEYVITRDQFNELVVGLFPDADGNMQNIGGDGGYGGLAFSPDGKTLYWNGRDPYQGILKADYDLVTKKCTNLTRFAGNGVWGIIDGQGVSSRMDQPNQIAVDAEGNLLVTTVYGRTVRKITPEGYVSTYAGIGYQTGYVDGLAAEAKFNKPYGIAIDAQGNVYVGDCENWRIRVIKEE | not soluble |
| MFSAVHPDSRRDCKKYRYSQTSHQNYWFLKYSEFNLLGKRKIKGNFLHLFHAEEKVLFQSVMLKDQTAKTEKRTQEITCQLSKLANFEENNRKKLQDTERENKKLRNLINSLELKLVSSPENLPLQILFFLISENDELLERVFHFHCATFTKLSDFQLLFFPTPMYVANEYAKSGRNLWNEAIIADAIPEVSGPEAARMKQITDSIKYKESGFLIDRRVNASALIIQSNCSIFNSNF | not soluble |
| MAHHHHHHMLYSSIRYGRNCTGTNETVKPLGPCVTPLGTILGVFNGVFGYSNCNDSYVSTELRYINLTVPELNNETGQLTYISKQFYTGLAWQCVEYARRYWMQRGTPQPAYFDSVLGAADVWNLTFVRLLSNASITLPLRRYWNGDRVTDNHQIPAIGDIIIYPVQDGGFPYGHVAVIANVELSTHGAIYVAEQNWANAVWSSPHHNYTRRIPMFYDMLTSTITLDDSEHQIIGWMRYG | not soluble |
| MEQKNVRNFCIIAHVDHGKSTLADRLLEYTGAISEREKREQLLDTLDVERERGITVKMQAVRMFYKAKDGNTYKLHLIDTPGHVDFSYEVSRALAACEGALLLIDASQGIEAQTVANFWKAVEQDLVIIPVINKIDLPSADVDRVKKQIEEVLGLDPEEAILASAKEGIGIEEILEAIVNRIPPPKGDPQKPLKALIFDSYYDPYRGAVAFVRIFDGEVKPGDKIMLMSTGKEYEVTEVGAQTPKMTKFDKLSAGDVGYIAASIKDVRDIRIGDTITHAKNPTKEPVPGFQPAKPMVYAGIYPAEDTTYEELRDALEKYAINDAAIVYEPESSPALGMGFRVGFLGLLHMEIVQERLEREYGVKIITTAPNVIYRVKKKFTDEVIEVRNPMDFPDNAGLIEYVEEPFVLVTIITPKEYVGPIIQLCQEKRGIQKNMTYLDPNTVYLEYEMPLSEIIVDFHDKIKSISRGFASYDYEFIGYRPSDLIKLTVLINKKPVDALSFIVHADRAQKFARRVAEKLRETIPRQLFEVHIQVAKGGKVIASERIKPLRANVTAKCYGGDVTRKKKLLENQKEGKKRMKQFGKVQLPQEAFLSVLKVE | soluble |
| MGSDKIHHHHHHLEAGMNYGVWNNKGGVGKSFLSFTLALEHAHRHPERKILLADMCPQANLSEIILGGNGKGNANLEARLAQDKRKTIGGYFDERIASPHQVTGNETSYLIAASDYNQELPDNVYLLCGDPSLELQAQVINQIGSQTLPADAWKNVHMWLKDLINACARQLGREGTSVFIDCNPSFSAYTELAIVASDRLILPCSCDGSSARAVHNVENLVFDGSAYYGDKSFSKMCERFGMALPVIHSVVLNRSTLYNKDASKAFSAMFDEIKRTANDFYKRSPGSFVAGGPAFMVMPDNHSVAIVSSHLGKPLYAIKPGKYQVYEVNPQINPEPLNRYKEAIEGMEAVLL | not soluble |
| MSLILKRVYIDFEMNMPNSKSKRAVFNSDIIAIGAVMYDEKTKNIDKFKSLIRPVSNEELYPHIQELTHISSEELKSAPSYEEVMRKFKKWLGIFSDIKGIYTFGNLDLTCFNNTDMRSAKKNNHPRFVNNIRDLFVDIKEKYINCGMRCMNYISLKNLLEFVNLEFSGDAHDPLNDAYNLFILDEAITNNVDIQNLLIIRDIIRPPFNDINSNLDNCFNKFKESLYKKEGNYNIVDFSVEIIKTVRMYLLTIIDVNIQNLEIMKDISKKMDTIDKLKDIEEGYFYLLEDVYFDMKDVLEDLMLYRMNEDEYKYEIKNIIKMFDEDLDNEKIYINKCNNLNVVNKEGHHHHHH | not soluble |
| MLEQVCQLARNAGDAIMQVYDGAKPMEYARKQDDSPVTAADIAAHTVILEGLRTLTPDIPVLSEEDPPAWEVRQHWQRYWLVDPLDGTKEFIKRNGEFTVNIALIEQGKPVLGVVYAPVLKVMYYAAEGKAWKEECGVRKQIQVRDARPPLVVISRSHTDDELTEYLQQLGEHQTTSIGSSLKFCLVAEGQAQLYPRFGPTSVWDTAAGHAIAVAAGAHVHDWQGKTLDYTPRESFLNPGFRVTIY | not soluble |
| MAGWNLEPEYTSLARDFGSLDAVFALQGQQLTRDPLSDVIRVERAGVYYFVKRYVGAGKGLRRYMGKPRVKSEWQNLKRFAKWGIPTAEVVAWGLERNGAAYDRGALITRGLPNTEDLSALAQRKDPRLADRQWVDGISRQLAAYTRIMHDNHFTHNDLKWRNLLVDNEDRLFFIDCPNGAFWWSFMLRYRITKDLACLDKVAKYHLSATQRLRFYLQYRQRARLNAADKKRIRHIVSFFEGRE | not soluble |
| MSLSDNVDVDVLSLVQNDALEESVAINSMISKARANFSGSLLQFQTRVSSVYGETNEENAVNPLDPEHICKAFSDACIGLDIEIKEKLIVYKQFDRYVMGNLVECLEEANKIMIQAGVMPNLKYTAKKSRVTPRSTSDVSARPLEAQSDANGYDGAGDVFSQVQELLSALRNTASNPEQQQGDPNTGAGGRQAPPPGNVQFIADADLLSILSRLQHSVRTENLAEGPVVALDLRTAVQGLLSEESQKSGKATALDQIDEDLINLVSMLFEFILDDYNLSAPIQVLISRLQIPILKVAIRDKSFFSKPSHPARKLLNALAKAGIGWSDASEKKRDKLYEQIHRAVQRILEEFNGESELFEEIYQEFSQYLSREERKAKLVEQRTKEAEIGRVKSHKAHQVVEQILSEKIAAQPLPPVAVELLRGGWSRVMFLAYLKEDTEHRLNQCTKVVDELTWCLQPHAEVEARQRWVKVVPQLLKNLKAGLKEVSYNSAKLEHMLGELKKALTETFKQQSITSEGHHHHHH | not soluble |
